Data: patent publication US20150351390A1, “COMPOSITIONS AND METHODS FOR AUXIN-ANALOG CONJUGATION” (PIONEER HI-BRED INTERNATIONAL, INC., priority 2012, published 2015)

B1: SbEES19769: GH3 protein, accession EES19769 (protein)
chain: MPEAPVTTMREAATAAAAAAVPETHRELLEYIERVTAGAAQVQRRVLAEILAQNAPAEYLRRLGVAGDAPGAVDAFRRAAPLVTYEDILPDVLRIANGDTSPILSGKPIREFLTSSGTSGGERKLMPAIADEMDRRSLLYSLLMPVMSQAVPGLDKGKCMYLYFVKAESRTPGGHPARPVLTSFYRSRHFLERPHDPYTVYTSPDEAILCVDAYQSMYAQLLCGLVHRADVLRVGAVFASGFLRAIRFLEKHWQRLCRDIRTGTLDAEAVTDRAVRAAVEQRVLLRADPALADAVEAECARTSWQGIIRRVWPNTKYIDVIVTGAMAQYIPQLEFYGGGLPLTCTMYASSESYFGINLNPMCKPSEVAYTLIPTMCYFEFLPLPQPGDDDAGEPDQRDLVDLVDVKLGHEYELVVTTYSGLYRYRVGDVLRVAGFKNQAPMFNFLRRKNVVLSIDADKTDEAELHAAVSGAVQHLAPFGASLVEYTSYADAGTIPGHYVLFWELRLRAAAAAGATPTPVPASVFEDCCLAVEEALNSVYRQGRAADRSIGPLEIRVVSDGTFDKLMDYALARGASINQYKAPRCVRPGPVVELLDGRVQASYFSPKCPKWSPGVGKQWSSDAAAAAKKAAAGGSNGGGGGGGAVVVA
modifications: Sorghum bicolor
B2: SbEES01578: GH3 protein, accession EES01578 (protein)
chain: MPEAPTTKTTLPAGGFGPGAHREALEFIEHVTANAGKVQRRVLAEILTQNAPAEYLRRYGVPGGSADAVEAFRRVVPLVTYEGLQPDILRIASGDTSPILSGKPISEFLTSSGTSGGERKLMPTIADELDRRSLLYSLQMPVMSQSVPGLDKGKAMYLLFVKAESRTPGGLVARPVLTSYYRSRQFLERPHDPYTEYTSPNEAILCVDSYQSMYTQLLCGLVHRADVLRVGAVFASGFLRAVRFLEKHWPRLCRDIRTGTLDPEITDRAVRDAVVGRVLRGANPALADEIEAECAGPSWEGIIRRLWPRTKYIDVIVTGAMSQYIPTLEFYGGGLPLACTMYASSECYFGLNLKPMCKPGDVAYTLIPTMCYFEFLPLQCSDGKAEPSHRDLVGLVDVKLGHEYELVVTTYSGLYRYRVGDVLRVAGFKNEAPMFKFIRRQNVALSIDSDKTDETELHAAVSGAVQHLAPFGASLVEYTSYADAATIPGHYVLFWELRAGSTAVPASVFEDCCLSVEEALNSVYRQCRACDKSIGPLEIRVVSEGTFDKLMDYAISRGASINQYKAPRCVRPGPVVELLDARVQAKYFSPKCPKWSPGNKQWNAASNGDA
modifications: Sorghum bicolor
B3: ZmACI46149: GH3 protein, accession ACI46149 (protein)
chain: MAVMAEVVSTTGAALRSPASQQPAAAGAAKGTDAEKLQFIEDMTSNVDAVQERVLGEILARNADTEYLAGRCGLAGATDRATFRAKVPMATYEDLQPYIRRIADGDRSPILSGHPVSEFLTSSGTSGGERKLMPTIEDELNRRQLLYSLQMPVMNLYVPGMDKGKALHFLFVKSETKTPGGLAARPVLTSYYKSNHFRNRPFDAYNNYTSPTAAILCADAFQSMYAQMVCGLCQRQDVLRVGAVFASGLLRAIRFLQLNWEQLADDIEAGSLTPRVTDPSVREAVAGILRPDPAVAELVRSECSGGDWAGIVTRIWPNTKYLDVIVTGAMAQYIPTLKHYSGGLPMACTMYASSECYFGLNLRPMCDPSEVSYTLMPNMCYFEFLPMGGAVDASQLVDLARVERGREYELVITTYAGLNRYRVGDVLQVTGFHNSAPQFRFVRRKNVLLSIESDKTDEAELQRAVERASALLRPHGAAVVEYTSQAYTKSIPGHYVVYWELLQAKGGAAVDGETLEGCCLEMEEALNAVYRQSRVADGSIGPLEIRVVRPGTFEELMDYAISRGASINQYKVPRCVTFPPIIELLDSRVVSSHLSPALPHWTAGQRSDSD
modifications: Zea mays
B4: ZmACI46148: GH3 protein, accession ACI46148 (protein)
chain: MAVMAEVVSTTGAALRSPASQPLPAAVKNADAEKLQFIEEMTSNVDAVQERVLGEILARNAGTEYLAKYGLAAATTDRATFRAKVPMATYEDLQPYIRRIADGDRSPILSGHPVSEFLTSSGTSAGERKLMPTIEDELNRRQLLYSLQMPVMNLYVPGMDKGKALHFLFVKSETKTPGGLAARPVLTSYYKSNHFKNRPFDAYNNYTSPTAAILCADAFQSMYAQMLCGLCQRQDVLRVGAVFASGLLRAIRFLQLNWEQLAEDIEAGSLTPRVTDPSVREAVAGILRADPELAALVRSECSKGDWAGIITRIWPSTKYLDVIVTGAMAQYIPTLKYYSGGLPMACTMYASSECYFGLNLRPMCDPSEVSYTLMPNMCYFEFLPMDSAAASGGDASKLVDLARVEVGREYELVITTYAGLNRYRVGDVLQVTGFHNTAPQFRFVRRKNVLLSIESDKTDEAELQRAVERASALLRPHGAAVVEYTSQAYTKSIPGHYVIYWELLAKGPAGGAAVGEGTLERCCLEMEEALNTVYRQSRVADGSIGPLEIRVVRPGTFEELMDYAISRGASINQYKVPRCVTFPPIIELLDSRVVSSHFSPALPHWTPGQRSDSD
modifications: Zea mays
B5: SbEES01517: GH3 protein, accession EES01517 (protein)
chain: MAPMATAAAAAAVGRVTALGVAACERDVEKLEFIEDKTKNFDAEQVRVLAEILARNNGAEYLRRHGMEGRTDRQAFKARVPVVTYEDLRPEIDRIANGDRSNIISSHPITEFLTSSGTSAGERKLMPTIEDELNRRQMLYSLLMPVMNLYVPGLDKGKGLYFLFIKSETKTPGGLPARPVLTSYYKSDHFKHRPYDPYNVYTSPTAAILCTDSFQSMYSQMLCGLVARTEVLRVGAVFASGLLRAIRFLQLHWKELAHDLRTGTLSARVVEPSIRDAVAEVLTKPDAGLADLVEAECGKDNWEGIITRVWPNTKYLDVIVTGAMAQYIPTLKYYSGGLPMACTMYASSECYFGLNLRPMCDPSEVSYTIMPNMGYFELLPHDPEDKPAVSSSSAASAMDHDRLLVDLADAEVGKEYELVITTYAGLCRYRVGDILHVTGFHNAAPQFRFVRRKNVLLSIDSDKTDEAELQSAVERASRLLAPYDARIVEYTSQADATTIPGHYVVYWELMVRDGGASPEPDVFERCCLEMEEALNAVYRQGRNGDAIGPLEIRVVRGGTFEEVMDYAISRGASINQYKAPRCVSFGPIIELLNSRVVSRHFSPACPTYSPHKK
modifications: Sorghum bicolor

Experiments:
[1] = LC-MS assay of GH3 conjugation of 2,4-D with Asp or Glu; format: biochemical; settings: 5 mM 2,4-D substrate; for kcat (hrs−1) 2,4-D-Asp: conjugation of 2,4-D with Asp by recombinant GH3 protein, 2,4-D-Asp product by LC-MS; for kcat (hrs−1) 2,4-D-Glu: conjugation of 2,4-D with Glu by recombinant GH3 protein, 2,4-D-Glu product by LC-MS
Procedure, shortened: (§1)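 Rxn: 20 mM Tris-HCl pH 8.0, 5 mM MgCl2, 1 mM DTT, 5 mM ATP, 5 mM auxin, 5 mM Asp/Glu, 44–164 μg/mL purified His-GH3; 30° C., 3 h. MeOH quench, supernatant diluted 20×, LC-MS vs conjugate standards.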

[2] = LC-MS assay of GH3 conjugation of IAA with Asp or Glu; format: biochemical; settings: for kcat (hrs−1) IAA-Asp: conjugation of IAA with Asp by recombinant GH3 protein, IAA-Asp product by LC-MS; for kcat (hrs−1) IAA-Glu: conjugation of IAA with Glu by recombinant GH3 protein, IAA-Glu product by LC-MS
Procedure, shortened: as §1

| Molecule | kcat (hrs−1) 2,4-D-Asp [1] [h⁻¹] | kcat (hrs−1) 2,4-D-Glu [1] [h⁻¹] | kcat (hrs−1) IAA-Asp [2] [h⁻¹] | kcat (hrs−1) IAA-Glu [2] [h⁻¹] |
| --- | --- | --- | --- | --- |
| B1 | 18.287 | 4.970 | 903.124 | 50.990 |
| B2 | 0.765 | 0.250 | 4419.692 | 162.572 |
| B3 | 2.892 | 0.355 | 684.072 | 26.467 |
| B4 | 2.278 | 0.401 | 869.016 | 49.496 |
| B5 | 0.953 | 0.426 | 855.770 | 80.034 |
